The record followed here is US20090214489A1 (published 2009).

Where no end group is shown, it is not given here.

Assay [1] addresses murine TPO receptor on Balb/C mouse marrow cells (mouse) (UniProt Q08351). Description: cell-based or functional assay.
For assay [2], the target named is T1, full length human TPO-R on transfected Ba/F3 cells (human, UniProt P40238 26-635).
T1 sequence (looked up): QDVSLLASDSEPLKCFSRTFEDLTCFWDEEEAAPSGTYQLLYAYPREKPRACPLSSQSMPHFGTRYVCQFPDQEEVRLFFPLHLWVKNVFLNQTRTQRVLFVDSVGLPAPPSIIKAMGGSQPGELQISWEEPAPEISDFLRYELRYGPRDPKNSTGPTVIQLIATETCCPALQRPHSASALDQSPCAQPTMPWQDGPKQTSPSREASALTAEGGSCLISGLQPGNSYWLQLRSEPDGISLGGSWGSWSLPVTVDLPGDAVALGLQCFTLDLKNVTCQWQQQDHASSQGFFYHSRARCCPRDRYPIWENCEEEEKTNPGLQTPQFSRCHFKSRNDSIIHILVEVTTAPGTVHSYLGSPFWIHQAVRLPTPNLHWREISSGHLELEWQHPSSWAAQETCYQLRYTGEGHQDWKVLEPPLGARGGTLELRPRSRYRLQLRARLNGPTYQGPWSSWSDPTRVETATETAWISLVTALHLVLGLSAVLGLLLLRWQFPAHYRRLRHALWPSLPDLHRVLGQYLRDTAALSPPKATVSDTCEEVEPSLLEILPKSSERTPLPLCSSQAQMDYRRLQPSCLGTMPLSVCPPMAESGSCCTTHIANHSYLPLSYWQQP
The assay is described as follows: cell-based or functional assay.

In assay [1], “rhuTPO (from UniProt P40225 22-353) (ligand)” returned a colonies of 3-5 large cells, mouse marrow in methylcellulose, 1 nM TPO, #1-1 of 15 colonies; a colonies of 3-5 large cells, mouse marrow in methylcellulose, 1 nM TPO, #1-2 of 12 colonies; a colonies of 3-5 large cells, mouse marrow in methylcellulose, 1 nM TPO, #2-1 of 16 colonies; a colonies of 3-5 large cells, mouse marrow in methylcellulose, 1 nM TPO, #2-2 of 13 colonies. In assay [1], the colonies of 6-12 large cells, mouse marrow in methylcellulose, 1 nM TPO, #1-1 stood at 6 colonies; the colonies of 6-12 large cells, mouse marrow in methylcellulose, 1 nM TPO, #1-2 worked out at 1 colonies; the colonies of 6-12 large cells, mouse marrow in methylcellulose, 1 nM TPO, #2-1 was 8 colonies; the colonies of 6-12 large cells, mouse marrow in methylcellulose, 1 nM TPO, #2-2 came to 3 colonies.

As to CNINQLRSIC (not fully specified; cysteine pairing not given here) [Table 8 compound, drawing CHEM-US-00045], in assay [2], the “activity (assay not given)” value is more than 10 µm.

For the molecule CQRADLINFC (not fully specified; cysteine pairing not given here) [Table 8 compound, drawing CHEM-US-00048], the “activity (assay not given)” value in assay [2] was more than 10 µm.

In the case of CGTEGPTLSTWLDC (not fully specified; cysteine pairing not given here) [Table 8 compound, drawing CHEM-US-00054], in assay [2], the “activity (assay not given)” value was more than 10 µm.

For the molecule CNRSQLLAAC (not fully specified; cysteine pairing not given here) [Table 8 compound, drawing CHEM-US-00046], the “activity (assay not given)” value in assay [2] is more than 10 µm.

As for CTRAQFLKGC (not fully specified; cysteine pairing not given here) [Table 8 compound, drawing CHEM-US-00044], the “activity (assay not given)” value in assay [2] is more than 10 µm.

On to CELVGPSLMSWLTC (not fully specified; cysteine pairing not given here) [Table 8 compound, drawing CHEM-US-00055], for which the “activity (assay not given)” value in assay [2] is more than 10 µm.

In the case of CSLKEFLHSGLMQC (not fully specified; cysteine pairing not given here) [Table 8 compound, drawing CHEM-US-00056], the “activity (assay not given)” value in assay [2] is more than 10 µm.

On to CTLGQWLQMGMC (not fully specified; cysteine pairing not given here) [Table 8 compound, drawing CHEM-US-00051], for which the “activity (assay not given)” value in assay [2] was more than 10 µm.

With CTSTQWLLAC (not fully specified; cysteine pairing not given here) [Table 8 compound, drawing CHEM-US-00047], the “activity (assay not given)” value in assay [2] was more than 10 µm.

Regarding CLLSEFLAGQQC (not fully specified; cysteine pairing not given here) [Table 8 compound, drawing CHEM-US-00049], the “activity (assay not given)” value in assay [2] was more than 10 µm.

Take CTLKEWLVSHEVWC (not fully specified; cysteine pairing not given here) [Table 8 compound, drawing CHEM-US-00058]: in assay [2], the “activity (assay not given)” value is more than 10 µm.

In the case of REGPTLRQWM (not fully specified) [Table 8 compound, drawing CHEM-US-00060], the “activity (assay not given)” value in assay [2] was more than 10 µm.

CTLREFLDPTTAVC (not fully specified; cysteine pairing not given here) [Table 8 compound, drawing CHEM-US-00053]: the “activity (assay not given)” value in assay [2] was more than 10 µm.

For the molecule CLTGPFVTQWLYEC (not fully specified; cysteine pairing not given here) [Table 8 compound, drawing CHEM-US-00052], the “activity (assay not given)” value in assay [2] was more than 10 µm.

With REGPTLRQWLMSRS (not fully specified) [Table 8 compound, drawing CHEM-US-00061], the “activity (assay not given)” value in assay [2] is more than 10 µm.

As to CTLAEFLASGVEQC (not fully specified; cysteine pairing not given here) [Table 8 compound, drawing CHEM-US-00057], the “activity (assay not given)” value in assay [2] is more than 10 µm.
